First the molecules themselves.
T1: hVEGF-A (8-109) (human, UniProt P15692 214-315)
T1 construct: residue numbers count on mature VEGF-A; dimer
T1 sequence (looked up): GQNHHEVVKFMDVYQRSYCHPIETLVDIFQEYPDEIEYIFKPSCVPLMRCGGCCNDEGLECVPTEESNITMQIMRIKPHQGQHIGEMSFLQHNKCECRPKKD

B1: LRP6_CKP4 (designed binder)
chain: GCRSVNKICKQDSDCLAGCVCGSSRNCG
B2: LRP6_CKP3 (designed binder)
chain: GCMNHVKARRCKQDSDCLAGCVCGPNGFCG
B3: LRP6_CKP10 (designed binder)
chain: GCASSNSIRQGWCKQDSDCLAGCVCGPKSNCG
B4: LRP6_CKP7 (designed binder)
chain: GCVSNRVNKGCKQDSDCLAGCVCGPNGFCG
B5: LRP6_CKP1 (designed binder)
chain: GCRTNRVKGGCKQDSDCLAGCVCGPNGFCG
B6: LRP6_CKP13 (designed binder)
chain: GCVNSVKRCKQDSDCLAGCVCSRGVNCG
B7: LRP6_CKP2 (designed binder)
chain: GCVNRVRGCKQDSDCLAGCVCSGGRDCG
B8: LRP6_CKP6 (designed binder)
chain: GCRNSIKRCKQNSDCLAGCVCSVGHGCG
B9: LRP6_CKP11 (designed binder)
chain: GCRSNRIRCKQDSDCLAGCVCYGHGDCG
B10: LRP6_CKP5 (designed binder)
chain: GCVNKIKGCKQDSDCLAGCVCGVEGRCG
B11: LRP6_CKP12 (designed binder)
chain: GCRSNKLREARGCKQDSDCLAGCVCGSRQDCG
B12: LRP6_CKP8 (designed binder)
chain: GCRGNIIKCKQDSDCLAGCVCNESRGCG
B13: LRP6_CKP9 (designed binder)
chain: GCRSGNTIRKRECKQDSDCLAGCVCGGPGGCG
B14: VEGF_CKP7.81 (designed binder)
chain: GCLDPTVNWALFCKQDSDCLAGCVCQHYKTCG
B15: VEGF_CKP2 (designed binder)
chain: GCGETVFEQFLWCKQDSDCLAGCVCGPNGFCG
B16: VEGF_CKP1 (designed binder)
chain: GCETDWYPHQIDCKQDSDCLAGCVCGPNGFCG
B17: 9.63-4 (designed binder)
chain: GCDVMQPYWGCEMDFDCLAGCICHWYNSCGFS
B18: 9.63-20 (designed binder)
chain: GCDVMQPYWGCEMDFDCLAGCICHWYNSCGQV
B19: 9.63-70 (designed binder)
chain: GCDVMQPYWGCEMDFDCLAGCVCHWYNSCGPL
B20: 9.63.44-10-A (designed binder)
chain: GCDVMQPYWGCEMDFDCLAGCVCHWYNSCGGI
B21: 9.63.44-3 (designed binder)
chain: GCDVMQPYWGCEMDFDCLAGCICHWYNSCGYA
B22: 9.63.44-4 (designed binder)
chain: GCDVMQPYWGCEMDFDCLAGCICHWYNSCGSR
B23: 9.63-25 (designed binder)
chain: GCDVMQPYWGCEMDFDCLAGCICHWYNSCGSR
B24: 9.63-67 (designed binder)
chain: GCDVMQPYWGCEMDFDCLAGCVCHWYNSCGGI
B25: 9.63.44-13 (designed binder)
chain: GCDVMQPYWGCEMDFDCLAGCVCHWYNSCGQF
B26: 9.63-79 (designed binder)
chain: GCDVMQPYWGCEMDFDCLAGCICHWYNSCGLQ
B27: 9.63.44-9 (designed binder)
chain: GCDVMQPYWGCEMDFDCLAGCICHWYNSCGLQ
B28: 9.63.44-8 (designed binder)
chain: GCDVMQPYWGCEMDFDCLAGCICHWYNSCGTS
B29: 9.63.44-2 (designed binder)
chain: GCDVMQPYWGCEMDFDCLAGCICHWYNSCGQV
B30: 9.63-22 (designed binder)
chain: GCDVMQPYWGCEMDFDCLAGCICHWYNSCGYA
B31: 9.63-72 (designed binder)
chain: GCDVMQPYWGCEMDFDCLAGCICHWYNSCGTS
B32: 9.63.44-7 (designed binder)
chain: GCDVMQPYWGCEMDFDCLAGCVCHWYNSCGGI
B33: 9.63.44-12 (designed binder)
chain: GCDVMQPYWGCEMDFDCLAGCVCHWYNSCGPL
B34: 9.63.44-10 (designed binder)
chain: GCDVMQPYWGCEMDFDCLVGCVCHWYNSCGDE
B35: 9.63.44-1 (designed binder)
chain: GCDVMQPYWGCEMDFDCLAGCICHWYNSCGFS
B36: VEGF_CKP7.17 (designed binder)
chain: GCQDPTVNWAVYCKQDSDCLAGCVCQFYQSCG
B37: VEGF_CKP7.35 (designed binder)
chain: GCQDPTFNWAEYCKQDSDCLAGCVCQMYQSCG
B38: VEGF_CKP7.43 (designed binder)
chain: GCQDPTLNWATYCKQDSDCLAGCVCQMYQSCG
B39: VEGF_CKP7.19 (designed binder)
chain: GCQDPTFNWAEYCKQDSDCLAGCVCQLYQSCG
B40: LRP6_CKP7.89 (designed binder)
chain: GCLDPSFDWALYCKQDSDCLAGCVCQLYNSCG
B41: VEGF_CKP7.8 (designed binder)
chain: GCKNPLFNWALYCKQDSDCLAGCVCQLFDSCG
B42: VEGF_CKP7.88 (designed binder)
chain: GCQDPKLNWAVYCKQDSDCLAGCVCQLFNSCG
B43: VEGF_CKP7.24 (designed binder)
chain: GCWDPTFNWALYCKQDSDCLAGCVCQMYDSCG
B44: VEGF_CKP7.54 (designed binder)
chain: GCLDRTLNWALYCKQDSDCLAGCVCQMYNSCG
B45: VEGF_CKP7.73 (designed binder)
chain: GCRDLTINWALFCKQDSDCLAGCVCQMFNSCG
B46: VEGF_CKP3 (designed binder)
chain: GCHMMYDYCKQDSDCLAGCVCEMYDACG
B47: VEGF_CKP7.2 (designed binder)
chain: GCDDPSFDWSVYCKQDSDCLAGCVCRMYDSCG
B48: VEGF_CKP7.57 (designed binder)
chain: GCLDPSFNWSLYCKQDSDCLAGCVCQMYDSCG
B49: VEGF_CKP7.50 (designed binder)
chain: GCQDPSLNWADYCKQDSDCLAGCVCQMHQSCG
B50: VEGF_CKP7.78 (designed binder)
chain: GCKDTTFNWGLFCKQDSDCLAGCVCQLYQSCG

For the first experiment, the target named is LRP6 E1E2 protein (human) (UniProt O75581). Put plainly: spot phage ELISA.
Sequence of LRP6 E1E2 protein (human) (O75581 20-630 limits assumed): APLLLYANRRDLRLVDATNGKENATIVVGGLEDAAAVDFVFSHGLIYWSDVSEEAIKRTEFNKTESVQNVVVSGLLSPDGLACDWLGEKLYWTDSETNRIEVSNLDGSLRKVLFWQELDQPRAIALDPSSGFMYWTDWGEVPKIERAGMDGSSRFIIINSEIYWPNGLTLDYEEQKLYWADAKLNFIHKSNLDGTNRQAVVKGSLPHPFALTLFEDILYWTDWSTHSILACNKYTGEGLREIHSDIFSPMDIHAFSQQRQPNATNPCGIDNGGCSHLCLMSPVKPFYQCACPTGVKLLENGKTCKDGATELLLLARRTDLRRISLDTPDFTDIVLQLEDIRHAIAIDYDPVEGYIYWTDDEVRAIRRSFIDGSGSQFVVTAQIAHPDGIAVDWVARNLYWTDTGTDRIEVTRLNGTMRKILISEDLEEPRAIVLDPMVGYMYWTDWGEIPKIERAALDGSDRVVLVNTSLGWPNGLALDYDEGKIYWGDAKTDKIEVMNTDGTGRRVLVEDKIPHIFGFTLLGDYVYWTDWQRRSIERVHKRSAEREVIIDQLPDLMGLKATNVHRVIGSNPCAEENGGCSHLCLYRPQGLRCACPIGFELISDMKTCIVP
Turning to B1, the ELISA worked out at 2.82 and the S/N turned out to be 25.4.

B2 registered an ELISA of 2.93 and a S/N of 40.2.

B3: the ELISA came out at 3.29 and the S/N stood at 37.4.

B4 gave an ELISA of 3.3 and a S/N of 29.

B5 came in with an ELISA of 3.23 and a S/N of 45.5.

Regarding B6, the ELISA amounted to 3.28 and the S/N stood at 37.8.

In turn, B7 gave an ELISA of 3.41 and a S/N of 41.6.

As to B8, the S/N turned out to be 37.4.

The molecule B9 returned an ELISA of 2.65 and a S/N of 36.8.

B10 came in with an ELISA of 3.04 and a S/N of 35.7.

For the molecule B11, the ELISA was 0.6 and the S/N is 6.78.

For the molecule B12, the ELISA turned out to be 3.23 and the S/N was found to be 37.6.

Turning to B13, the ELISA worked out at 2.97 and the S/N came out at 37.6.

The next experiment deals with T1, hVEGF-A (8-109). In words: spot phage ELISA. On the technique in general: An ELISA detects its analyte on a solid surface through an enzyme-linked reagent.
B14 gave an ELISA of 1.1 and a S/N of 18.6.

The molecule B15 displayed an ELISA of 3.2 and a S/N of 48.1.

In turn, B16 showed an ELISA of 0.9 and a S/N of 16.9.

With B17, the binding result is listed as “binds”.

For the molecule B18, the binding result is listed as “binds”.

As for B19, the binding result is reported as “binds”.

Turning to B20, the binding result is given as “binds”.

Regarding B21, the binding result was “binds”.

As to B22, the binding result is “binds”.

Turning to B23, the binding result is “binds”.

B24: the binding result is reported as “binds”.

With B25, the binding result is listed as “binds”.

For the molecule B26, the binding result is on record as “binds”.

With B27, the binding result is given as “binds”.

As to B28, the binding result is “binds”.

As to B29, the binding result is “binds”.

Regarding B30, the binding result is “binds”.

For the molecule B31, the binding result is “binds”.

On to B32, for which the binding result was “binds”.

As for B33, the binding result was “binds”.

As for B34, the binding result is “binds”.

B35: the binding result is reported as “binds”.

As to B36, the ELISA worked out at 0.8 and the S/N turned out to be 13.4.

In the case of B37, the ELISA is 0.6 and the S/N was 10.6.

Molecule B38 displayed an ELISA of 0.5 and a S/N of 6.3.

Take B39: the ELISA came out at 0.6 and the S/N came out at 11.1.

B40 showed an ELISA of 0.5 and a S/N of 8.1.

In the case of B41, the ELISA stood at 0.5 and the S/N stood at 7.5.

In turn, B42 showed an ELISA of 0.5 and a S/N of 7.7.

B43 displayed an ELISA of 0.8 and a S/N of 13.4.

As to B44, the ELISA stood at 0.5 and the S/N amounted to 9.3.

B45: the ELISA is 1.2 and the S/N turned out to be 19.2.

The molecule B46 showed an ELISA of 3.1 and a S/N of 42.9.

The molecule B47 registered an ELISA of 1.2 and a S/N of 21.5.

Consider B48, for which the ELISA came out at 1 and the S/N was 17.4.

The molecule B49 came in with an ELISA of 0.8 and a S/N of 14.3.

In turn, B50 showed an ELISA of 0.7 and a S/N of 11.8.

Values taken from patent publication US20230174596A1 (published 2023).
